Data from patent US20170088610A1 (RINAT NEUROSCIENCE, published 2017).
Where two headings read alike, the source gives them in different places.

Columns and labels:
rat nerve growth factor [1] = biological target: T1, rat nerve growth factor (rat, UniProt P25427 122-241); experiment: cell-based or functional assay
[2] = biological target: T2, human nerve growth factor (human, UniProt P01138 122-241); experiment: cell-based or functional assay
rat nerve growth factor [3] = biological target: T1, rat nerve growth factor; experiment: cell-based or functional assay; remark: listed apart in the source
[4] = biological target: T2, human nerve growth factor; experiment: cell-based or functional assay; remark: listed apart in the source
[5] = biological target: T2, human nerve growth factor; experiment: BIAcore SPR, Fabs over immobilised human NGF
Experimental: (§1) Affinities of anti-NGF Fabs and monoclonal antibodies were determined using the BIAcore3000™ surface plasmon resonance (SPR) system (BIAcore, INC, Piscaway N.J.). CM5 chips were activated with N-ethyl-N′-(3-dimethylaminopropyl)-carbodiinide hydrochloride (EDC) and N-hydroxysuccinimide (NETS) according to the supplier's instructions. Human NGF was diluted into 10 mM sodium acetate pH 4.0 and injected over the activated chip at a concentration of 0.005 mg/mL. Using variable flow time across the individual chip channels, two ranges of antigen density were achieved: 100-200 response units (RU) for detailed kinetic studies and 500-600 RU for screening assays. The chip was blocked with ethanolamine. […] HBS-EP buffer (0.01M HEPES, pH 7.4, 0.15 NaCl, 3 mM EDTA, 0.005% Surfactant […]) was used as running buffer for all the BIAcore assays.
(§2) Briefly, several concentrations of antibodies (Fabs) were injected for 2 minutes onto a CM5 chip with 100 RU of immobilized human NGF on it, and permitted to dissociate for 1800 seconds. […] Data was analyzed using BIAevaluation software following the manufacturer's instructions.

[6] = biological target: T2, human nerve growth factor; experiment: BIAcore SPR screen, Fab over immobilised human NGF
Experimental: (§3) A screening BIAcore assay was optimized to determine the affinity of Fab clones from libraries. Supernatants of small culture lysates were injected at […] for 2 min. Dissociation times of 10 to 15 minutes were used for determination of a single exponential dissociation rate (koff) using BIAevaluation software. […] Clones showing improved (slower) koff values were expressed at large scale and full kinetic parameters, kₒₙ and koff, were determined on purified protein.

[7] = biological target: T2, human nerve growth factor; experiment: BIAcore SPR, Fab over immobilised human NGF (100 RU)
Experimental: as §1, §2

[8] = biological target: T2, human nerve growth factor; experiment: BIAcore SPR, purified Fab over immobilised human NGF (100 RU); purified Fab E3, 100 RU NGF on chip
Experimental: as §1, §2

[9] = biological target: T2, human nerve growth factor; experiment: BIAcore SPR screen, Fab over immobilised human NGF; KD calculated from koff with kon 4e4 M-1s-1
Experimental: as §3

T1 sequence (P25427 122-241 limits assumed): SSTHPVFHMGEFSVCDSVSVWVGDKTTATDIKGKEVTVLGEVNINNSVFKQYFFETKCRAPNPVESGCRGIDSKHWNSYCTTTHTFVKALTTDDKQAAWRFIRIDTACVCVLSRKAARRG
T2 sequence (P01138 122-241 limits assumed): as the sequence (P25427 122-241 limits assumed) above, with T3S, V6I, M9R, T37M, A60D, E65D, T92M, D94G, A117V, G120A counted along it

fold higher binding affinity than parent mouse antibody 911 [5]: ~50 fold | koff [6]: 1.2e-05 s⁻¹ | Kd [7]: ≤ 0.07 nM | koff [7]: < 4e-05 s⁻¹ | kon [7]: 600000 M⁻¹ s⁻¹ | koff [8]: ~4.2e-05 s⁻¹ | Kd [9]: 0.3 nM
B1: antibody E3 (Fab) (Fab, V domains shown)
VH: QVQLQESGPGLVKPSETLSLTCTVSGFSLIGYDLNWIRQPPGKGLEWIGIIWGDGTTDYNSAVKSRVTISKDTSKNQFSLKLSSVTAADTAVYYCARGGYWYATSYYFDYWGQGTLVTVS
VL: DIQMTQSPSSLSASVGDRVTITCRASQSISNNLNWYQQKPGKAPKLLIYYTSRFHSGVPSRFSGSGSGTDFTFTISSLQPEDIATYYCQQEHTLPYTFGQGTKLEIKR
notes: Fab with human IgG2 CH1 and human kappa constant domain; His tag at the heavy chain C terminus in the E. coli format; also called Fab E3; 3E Fab
IC50, rat NGF-dependent survival of mouse E13.5 trigeminal neurons (15 pM NGF) (rat nerve growth factor [1]): ~31.6 pM | IC50, human NGF-dependent survival of mouse E13.5 trigeminal neurons (1.5 pM NGF) [2]: < 1.2 pM | IC50, human NGF-dependent survival of mouse E13.5 trigeminal neurons (15 pM NGF) [2]: < 21 pM | IC50, rat NGF-dependent survival of mouse E13.5 trigeminal neurons (1.5 pM NGF) (rat nerve growth factor [3]): < 1.3 pM | IC50, rat NGF-dependent survival of mouse E13.5 trigeminal neurons (15 pM NGF) (rat nerve growth factor [3]): < 8.3 pM | IC50 (read off the curve), NGF-dependent survival of E13.5 mouse trigeminal neurons (0.4 ng/ml human NGF, 48 h) [4]: ~0.02 nM binding sites
